Test results as given in PMC4783357.

System: T1, His-OsWOX3A (Oryza sativa), ORF:198cabac
T1 sequence: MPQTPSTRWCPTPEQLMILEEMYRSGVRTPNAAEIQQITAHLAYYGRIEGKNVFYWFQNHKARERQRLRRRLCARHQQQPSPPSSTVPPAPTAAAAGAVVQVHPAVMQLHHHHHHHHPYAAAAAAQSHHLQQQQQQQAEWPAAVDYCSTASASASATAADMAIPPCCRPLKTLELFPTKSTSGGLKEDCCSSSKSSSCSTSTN
Experiment: EMSA
Conditions: 10 mM Tris pH 7.5, 50 mM KCl, 1 mM DTT (from 10x buffer) plus about 50 mM KCl, 5 mM MgCl2, 10 mM EDTA, 2.5% glycerol, 0.05% NP-40, 50 ng/ul poly(dG-dC); room …

Which binding does the source give for “TACAAAACTCACTACTAGTAATTAAGTGTTGAGGGTTCGAGAACAAATTAATTAATCGCCAAATAATGCATCACAAACATCATCAACCTAGTTATCGGTT (double strand) [KAO-W1]” here?
The binding was “binds”.
